Measured values reported in PMC6982183.

Biological target: human Hsp60 wild type (human)
Experiment: SEC; Superdex 200 Increase 10/300 GL, 50 mM Tris-HCl (pH 7.8 at 25 °C), 2 mM DTT, 2 mM EDTA, 0.5 mg sample, 0.75 mL/min; size from calibration with molecular weight standards; before and after agitation

- stoichiometry N: 14
Substance: human Hsp60 wild type (natural protein)
